From paper PMC11832219 (Molecular cell, 2024)

T1: MED17 (human (endogenous in 293-F), UniProt Q9NVC6 1-651)
T1 sequence (looked up): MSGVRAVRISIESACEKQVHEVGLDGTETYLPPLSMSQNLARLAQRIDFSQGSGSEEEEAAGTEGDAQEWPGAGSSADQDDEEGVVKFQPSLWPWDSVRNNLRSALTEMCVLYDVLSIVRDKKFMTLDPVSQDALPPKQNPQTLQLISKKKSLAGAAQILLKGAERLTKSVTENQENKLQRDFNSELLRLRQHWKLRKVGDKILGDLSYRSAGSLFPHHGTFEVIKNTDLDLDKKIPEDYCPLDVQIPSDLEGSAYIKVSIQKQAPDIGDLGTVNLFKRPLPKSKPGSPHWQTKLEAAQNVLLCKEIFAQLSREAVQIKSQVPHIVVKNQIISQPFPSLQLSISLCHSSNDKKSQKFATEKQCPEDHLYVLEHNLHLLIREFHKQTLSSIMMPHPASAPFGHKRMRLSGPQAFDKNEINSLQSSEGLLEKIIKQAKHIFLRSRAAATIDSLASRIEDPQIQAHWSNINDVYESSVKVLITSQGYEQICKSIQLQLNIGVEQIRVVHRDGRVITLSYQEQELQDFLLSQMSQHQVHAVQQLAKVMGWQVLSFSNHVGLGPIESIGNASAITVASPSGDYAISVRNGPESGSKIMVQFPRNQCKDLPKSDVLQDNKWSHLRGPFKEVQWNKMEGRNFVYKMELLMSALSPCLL

B1: CCNC-6xHis (recombinant CKM subunit) (natural protein, human)
chain: MAGNFWQSSHYLQWILDKQDLLKERQKDLKFLSEEEYWKLQIFFTNVIQALGEHLKLRQQVIATATVYFKRFYARYSLKSIDPVLMAPTCVFLASKVEEFGVVSNTRLIAAATSVLKTRFSYAFPKEFPYRMNHILECEFYLLELMDCCLIVYHPYRPLLQYVQDMGQEDMLLPLAWRIVNDTYRTDLCLLYPPFMIALACLHVACVVQQKDARQWFAELSVDMEKILEIIRVILKLYEQWKNFDERKEMATILSKMPKPKPPPNSEGEQGPNGSQNSSYSQS
B2: CCNC (natural protein, human (endogenous in 293-F), UniProt P24863 1-283, looked up)
chain: B1 chain
B3: MED7 (natural protein, human (endogenous in 293-F), UniProt O43513 1-233, looked up)
chain: MGEPQQVSALPPPPMQYIKEYTDENIQEGLAPKPPPPIKDSYMMFGNQFQCDDLIIRPLESQGIERLHPMQFDHKKELRKLNMSILINFLDLLDILIRSPGSIKREEKLEDLKLLFVHVHHLINEYRPHQARETLRVMMEVQKRQRLETAERFQKHLERVIEMIQNCLASLPDDLPHSEAGMRVKTEPMDADDSNNCTGQNEHQRENSGHRRDQIIEKDAALCVLIDEMNERP
B4: MED19 (natural protein, human (endogenous in 293-F), UniProt A0JLT2 1-244, looked up)
chain: MENFTALFGAQADPPPPPTALGFGPGKPPPPPPPPAGGGPGTAPPPTAATAPPGADKSGAGCGPFYLMRELPGSTELTGSTNLITHYNLEQAYNKFCGKKVKEKLSNFLPDLPGMIDLPGSHDNSSLRSLIEKPPILSSSFNPITGTMLAGFRLHTGPLPEQCRLMHIQPPKKKNKHKHKQSRTQDPVPPETPSDSDHKKKKKKKEEDPDRKRKKKEKKKKKNRHSPDHPGMGSSQASSSSSLR
B5: MED21 (natural protein, human (endogenous in 293-F), UniProt Q13503 1-144, looked up)
chain: MADRLTQLQDAVNSLADQFCNAIGVLQQCGPPASFNNIQTAINKDQPANPTEEYAQLFAALIARTAKDIDVLIDSLPSEESTAALQAASLYKLEEENHEAATCLEDVVYRGDMLLEKIQSALADIAQSQLKTRSGTHSQSLPDS
B6: MED10 (natural protein, human (endogenous in 293-F), UniProt Q9BTT4 1-135, looked up)
chain: MAEKFDHLEEHLEKFVENIRQLGIIVSDFQPSSQAGLNQKLNFIVTGLQDIDKCRQQLHDITVPLEVFEYIDQGRNPQLYTKECLERALAKNEQVKGKIDTMKKFKSLLIQELSKVFPEDMAKYRSIRGEDHPPS
B7: Flag-tagged MED13 IDRc (residues 500–1069), expressed in 293-F cells (domain or fragment, human, UniProt Q9UHV7 500-1069, looked up)
chain: SAPDSQVRFSNIRTNDVAKTPQMHGTEMANSPQPPPLSPHPCDVVDEGVTKTPSTPQSQHFYQMPTPDPLVPSKPMEDRIDSLSQSFPPQYQEAVEPTVYVGTAVNLEEDEANIAWKYYKFPKKKDVEFLPPQLPSDKFKDDPVGPFGQESVTSVTELMVQCKKPLKVSDELVQQYQIKNQCLSAIASDAEQEPKIDPYAFVEGDEEFLFPDKKDRQNSEREAGKKHKVEDGTSSVTVLSHEEDAMSLFSPSIKQDAPRPTSHARPPSTSLIYDSDLAVSYTDLDNLFNSDEDELTPGSKKSANGSDDKASCKESKTGNLDPLSCISTADLHKMYPTPPSLEQHIMGFSPMNMNNKEYGSMDTTPGGTVLEGNSSSIGAQFKIEVDEGFCSPKPSEIKDFSYVYKPENCQILVGCSMFAPLKTLPSQYLPPIKLPEECIYRQSWTVGKLELLSSGPSMPFIKEGDGSNMDQEYGTAYTPQTHTSFGMPPSSAPPSNSGAGILPSPSTPRFPTPRTPRTPRTPRGAGGPASAQGSVKYENSDLYSPASTPSTCRPLNSVEPATVPSIPEAH
B8: MED8 (natural protein, human (endogenous in 293-F), UniProt Q96G25 1-268, looked up)
chain: MQREEKQLEASLDALLSQVADLKNSLGSFICKLENEYGRLTWPSVLDSFALLSGQLNTLNKVLKHEKTPLFRNQVIIPLVLSPDRDEDLMRQTEGRVPVFSHEVVPDHLRTKPDPEVEEQEKQLTTDAARIGADAAQKQIQSLNKMCSNLLEKISKEERESESGGLRPNKQTFNPTDTNALVAAVAFGKGLSNWRPSGSSGPGQAGQPGAGTILAGTSGLQQVQMAGAPSQQQPMLSGVQMAQAGQPGKMPSGIKTNIKSASMHPYQR
B9: MED6 (natural protein, human (endogenous in 293-F), UniProt O75586 1-246, looked up)
chain: MAAVDIRDNLLGISWVDSSWIPILNSGSVLDYFSERSNPFYDRTCNNEVVKMQRLTLEHLNQMVGIEYILLHAQEPILFIIRKQQRQSPAQVIPLADYYIIAGVIYQAPDLGSVINSRVLTAVHGIQSAFDEAMSYCRYHPSKGYWWHFKDHEEQDKVRPKAKRKEEPSSIFQRQRVDALLLDLRQKFPPKFVQLKPGEKPVPVDQTKKEAEPIPETVKPEEKETTKNVQQTVSAKGPPEKRMRLQ
B10: MED31 (natural protein, human (endogenous in 293-F), UniProt Q9Y3C7 1-131, looked up)
chain: MAAAVAMETDDAGNRLRFQLELEFVQCLANPNYLNFLAQRGYFKDKAFVNYLKYLLYWKDPEYAKYLKYPQCLHMLELLQYEHFRKELVNAQCAKFIDEQQILHWQHYSRKRMRLQQALAEQQQQNNTSGK

Assays:
[1] = molecular target: CDK8-Flag (recombinant CKM subunit) (human, UniProt P49336 1-464); assay: cryo-EM structure
CDK8-Flag (recombinant CKM subunit), sequence (P49336 whole entry): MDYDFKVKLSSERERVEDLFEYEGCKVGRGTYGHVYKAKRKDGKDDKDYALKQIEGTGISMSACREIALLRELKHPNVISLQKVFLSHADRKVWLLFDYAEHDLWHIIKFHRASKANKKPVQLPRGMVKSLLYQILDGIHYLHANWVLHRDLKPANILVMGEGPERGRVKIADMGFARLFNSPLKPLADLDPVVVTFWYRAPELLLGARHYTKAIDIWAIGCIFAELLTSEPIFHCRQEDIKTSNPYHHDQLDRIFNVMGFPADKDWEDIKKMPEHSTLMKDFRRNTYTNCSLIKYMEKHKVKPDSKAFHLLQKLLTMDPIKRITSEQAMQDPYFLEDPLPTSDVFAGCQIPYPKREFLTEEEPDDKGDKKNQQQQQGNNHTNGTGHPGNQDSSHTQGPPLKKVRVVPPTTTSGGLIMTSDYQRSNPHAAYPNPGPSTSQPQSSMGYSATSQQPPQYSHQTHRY

MED12 = MED12 (human (endogenous in 293-F), UniProt Q93074 1-2177); assay: cross-linking
MED12, sequence (Q93074 whole entry): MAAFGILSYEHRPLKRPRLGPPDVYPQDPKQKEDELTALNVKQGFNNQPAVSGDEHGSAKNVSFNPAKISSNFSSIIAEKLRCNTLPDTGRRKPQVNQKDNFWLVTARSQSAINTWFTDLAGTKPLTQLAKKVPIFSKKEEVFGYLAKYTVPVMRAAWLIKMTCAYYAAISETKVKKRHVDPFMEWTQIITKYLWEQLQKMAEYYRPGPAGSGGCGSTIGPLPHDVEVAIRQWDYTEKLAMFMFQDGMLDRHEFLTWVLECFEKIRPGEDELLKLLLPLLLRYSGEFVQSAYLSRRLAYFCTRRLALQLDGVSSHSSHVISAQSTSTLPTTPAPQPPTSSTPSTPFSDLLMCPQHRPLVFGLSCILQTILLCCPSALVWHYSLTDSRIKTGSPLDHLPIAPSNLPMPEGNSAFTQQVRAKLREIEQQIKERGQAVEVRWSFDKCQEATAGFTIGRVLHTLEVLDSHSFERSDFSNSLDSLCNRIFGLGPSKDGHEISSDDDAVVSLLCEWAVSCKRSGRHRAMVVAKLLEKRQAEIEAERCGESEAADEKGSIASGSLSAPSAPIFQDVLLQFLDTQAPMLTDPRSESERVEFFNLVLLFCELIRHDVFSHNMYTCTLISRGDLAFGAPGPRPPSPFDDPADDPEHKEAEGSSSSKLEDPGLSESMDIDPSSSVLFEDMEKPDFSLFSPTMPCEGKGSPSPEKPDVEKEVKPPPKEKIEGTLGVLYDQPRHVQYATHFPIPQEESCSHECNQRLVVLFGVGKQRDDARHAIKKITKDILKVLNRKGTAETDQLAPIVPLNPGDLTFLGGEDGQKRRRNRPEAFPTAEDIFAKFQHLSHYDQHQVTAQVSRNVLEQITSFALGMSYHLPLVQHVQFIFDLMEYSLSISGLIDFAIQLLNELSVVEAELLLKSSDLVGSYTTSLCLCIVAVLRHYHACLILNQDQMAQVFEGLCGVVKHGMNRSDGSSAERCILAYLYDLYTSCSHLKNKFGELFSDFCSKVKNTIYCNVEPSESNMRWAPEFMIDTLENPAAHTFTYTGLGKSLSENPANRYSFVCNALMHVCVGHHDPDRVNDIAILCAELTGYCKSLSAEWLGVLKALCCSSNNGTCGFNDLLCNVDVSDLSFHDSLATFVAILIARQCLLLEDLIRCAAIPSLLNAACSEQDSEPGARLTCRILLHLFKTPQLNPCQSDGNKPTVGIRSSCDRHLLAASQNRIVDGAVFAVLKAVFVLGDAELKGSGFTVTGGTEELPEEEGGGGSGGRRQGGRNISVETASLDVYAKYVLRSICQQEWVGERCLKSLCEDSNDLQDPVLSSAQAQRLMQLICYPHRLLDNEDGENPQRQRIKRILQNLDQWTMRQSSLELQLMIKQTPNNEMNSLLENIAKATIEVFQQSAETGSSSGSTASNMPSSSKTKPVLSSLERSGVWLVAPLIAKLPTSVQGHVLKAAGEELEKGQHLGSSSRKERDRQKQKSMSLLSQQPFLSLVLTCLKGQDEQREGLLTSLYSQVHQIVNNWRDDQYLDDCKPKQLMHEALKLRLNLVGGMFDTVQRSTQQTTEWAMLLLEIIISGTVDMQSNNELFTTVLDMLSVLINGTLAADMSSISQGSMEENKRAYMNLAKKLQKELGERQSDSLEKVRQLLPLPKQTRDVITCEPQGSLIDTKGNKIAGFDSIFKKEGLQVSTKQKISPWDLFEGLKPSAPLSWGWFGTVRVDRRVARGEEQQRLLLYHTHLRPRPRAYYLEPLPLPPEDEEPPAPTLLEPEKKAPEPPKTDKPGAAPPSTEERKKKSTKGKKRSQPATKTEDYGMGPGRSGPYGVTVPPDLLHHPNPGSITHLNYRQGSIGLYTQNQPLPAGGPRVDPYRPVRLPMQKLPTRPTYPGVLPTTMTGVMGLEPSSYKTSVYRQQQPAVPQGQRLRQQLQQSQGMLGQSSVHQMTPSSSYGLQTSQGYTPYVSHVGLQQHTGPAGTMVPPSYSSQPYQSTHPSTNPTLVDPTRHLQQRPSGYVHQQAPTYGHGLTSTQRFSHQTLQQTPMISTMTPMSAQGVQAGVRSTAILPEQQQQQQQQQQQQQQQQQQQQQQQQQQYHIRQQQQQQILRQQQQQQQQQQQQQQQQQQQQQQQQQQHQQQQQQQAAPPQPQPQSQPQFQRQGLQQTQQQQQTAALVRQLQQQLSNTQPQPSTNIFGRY

[2] = molecular target: B7; assay: cryo-EM structure
MED13 [3] = molecular target: T2, MED13 (human (endogenous in 293-F), UniProt Q9UHV7 1-2174); assay: cryo-EM structure
T2 sequence (Q9UHV7 whole entry): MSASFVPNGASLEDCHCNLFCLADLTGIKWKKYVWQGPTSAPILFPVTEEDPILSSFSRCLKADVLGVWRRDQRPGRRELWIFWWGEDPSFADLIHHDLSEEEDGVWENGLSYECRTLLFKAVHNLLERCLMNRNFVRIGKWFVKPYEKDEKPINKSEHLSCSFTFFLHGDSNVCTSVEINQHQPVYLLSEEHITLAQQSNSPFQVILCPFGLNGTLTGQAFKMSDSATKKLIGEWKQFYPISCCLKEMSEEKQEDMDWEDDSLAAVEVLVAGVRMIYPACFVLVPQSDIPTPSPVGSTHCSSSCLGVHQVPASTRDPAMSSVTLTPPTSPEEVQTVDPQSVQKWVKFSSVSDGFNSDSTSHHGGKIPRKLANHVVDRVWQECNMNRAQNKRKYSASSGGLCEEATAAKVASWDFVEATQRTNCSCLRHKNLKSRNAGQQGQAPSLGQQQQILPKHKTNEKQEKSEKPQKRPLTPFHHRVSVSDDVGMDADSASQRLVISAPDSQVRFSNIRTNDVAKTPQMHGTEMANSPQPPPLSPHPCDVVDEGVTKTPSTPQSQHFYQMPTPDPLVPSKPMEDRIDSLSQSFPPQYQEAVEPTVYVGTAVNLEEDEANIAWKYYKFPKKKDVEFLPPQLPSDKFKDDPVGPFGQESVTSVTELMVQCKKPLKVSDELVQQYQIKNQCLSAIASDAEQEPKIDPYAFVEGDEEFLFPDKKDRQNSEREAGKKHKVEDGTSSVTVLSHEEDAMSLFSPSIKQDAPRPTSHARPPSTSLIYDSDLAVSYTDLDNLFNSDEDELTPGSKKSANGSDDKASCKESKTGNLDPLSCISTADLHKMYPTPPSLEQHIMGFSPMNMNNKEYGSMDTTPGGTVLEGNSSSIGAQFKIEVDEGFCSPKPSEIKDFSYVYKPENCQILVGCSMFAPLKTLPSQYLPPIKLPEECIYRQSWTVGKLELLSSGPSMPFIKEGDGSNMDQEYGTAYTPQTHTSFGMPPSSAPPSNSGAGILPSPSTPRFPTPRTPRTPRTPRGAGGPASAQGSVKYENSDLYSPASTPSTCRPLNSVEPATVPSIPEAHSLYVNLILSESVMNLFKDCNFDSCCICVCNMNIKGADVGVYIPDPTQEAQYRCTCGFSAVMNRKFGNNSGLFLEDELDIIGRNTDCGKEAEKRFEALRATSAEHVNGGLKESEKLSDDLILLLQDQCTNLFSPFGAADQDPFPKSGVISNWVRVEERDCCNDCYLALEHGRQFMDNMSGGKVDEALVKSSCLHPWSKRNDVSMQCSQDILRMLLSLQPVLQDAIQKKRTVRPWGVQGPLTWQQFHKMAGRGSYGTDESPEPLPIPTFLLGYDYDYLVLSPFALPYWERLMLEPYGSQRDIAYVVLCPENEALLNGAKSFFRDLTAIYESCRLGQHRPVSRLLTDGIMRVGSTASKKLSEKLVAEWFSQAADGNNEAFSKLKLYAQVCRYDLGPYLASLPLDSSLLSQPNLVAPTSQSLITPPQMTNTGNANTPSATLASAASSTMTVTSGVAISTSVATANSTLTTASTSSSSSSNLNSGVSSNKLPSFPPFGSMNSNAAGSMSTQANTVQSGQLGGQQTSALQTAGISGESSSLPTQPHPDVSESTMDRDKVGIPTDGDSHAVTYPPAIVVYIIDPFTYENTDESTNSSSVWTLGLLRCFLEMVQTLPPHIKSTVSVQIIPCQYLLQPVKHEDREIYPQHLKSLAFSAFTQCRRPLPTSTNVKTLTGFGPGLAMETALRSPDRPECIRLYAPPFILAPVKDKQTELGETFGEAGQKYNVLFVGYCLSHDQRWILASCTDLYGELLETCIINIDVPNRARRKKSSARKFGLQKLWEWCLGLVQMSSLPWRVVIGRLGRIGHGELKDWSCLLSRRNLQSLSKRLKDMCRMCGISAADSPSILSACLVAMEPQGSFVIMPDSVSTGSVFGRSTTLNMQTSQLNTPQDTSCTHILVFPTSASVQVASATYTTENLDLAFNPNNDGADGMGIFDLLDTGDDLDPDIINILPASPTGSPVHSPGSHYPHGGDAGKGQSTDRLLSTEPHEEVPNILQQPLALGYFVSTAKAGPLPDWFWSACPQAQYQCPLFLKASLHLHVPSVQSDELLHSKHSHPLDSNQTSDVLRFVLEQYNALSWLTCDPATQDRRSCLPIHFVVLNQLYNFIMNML

MED13 [4] = molecular target: T2, MED13; assay: cross-linking
MED12L = MED12L (human (endogenous in 293-F), UniProt Q86YW9 1-2145); assay: cross-linking
MED14 = MED14 (human (endogenous in 293-F), UniProt O60244 1-1454); assay: cryo-EM structure
MED17 = molecular target: T1, MED17; assay: cryo-EM structure

B1: binds [1].

B2: binds (MED12).

B3: binds [2].

B4: binds (MED12); binds (MED13 [3]).

B5: binds [2].

B6: binds (MED12); binds (MED13 [4]); binds (MED12L).

B7: binds (MED14); binds (MED17).

B8: binds [2].

B9: binds [2].

B10: binds (MED13 [4]).
